Assay results: patent US20240123070A1 (SHANGHAI GENBASE BIOTECHNOLOGY, published 2024)

Target: KRAS G13D antigen (G13D-RT6, SEQ ID NO: 20) loaded on Lovo-DPA0301:DPB0501 cells (human)
Assay: cell-based or functional assay

Row | Binder | TCR Mut RLU/WT RLU [ratio]
1 | B8.2.4 TCR mutant β97V-T (TCR, V domains shown) V domain 1: AQKITQTQPGMFVQEKEAVTLDCTYDTSDPSYGLFWYKQPSSGEMIFLIYQGSYDQQNATEGRYSLNFQKARKSANLVISASQLGDSAMYFCAMRERTGTASKLTFGTGTRLQVTL V domain 2: DVKVTQSSRYLVKRTGEKVFLECVQDMDHENMFWYRQDPGLGLRLIYFSYDVKMKEKGDIPEGYSVSREKKERFSLILESASTNQTSMYLCASSQTTPPQHFGDGTRLSILE | 0.98
2 | B8.2.4 TCR mutant β97V-W (TCR, V domains shown) V domain 1: AQKITQTQPGMFVQEKEAVTLDCTYDTSDPSYGLFWYKQPSSGEMIFLIYQGSYDQQNATEGRYSLNFQKARKSANLVISASQLGDSAMYFCAMRERTGTASKLTFGTGTRLQVTL V domain 2: DVKVTQSSRYLVKRTGEKVFLECVQDMDHENMFWYRQDPGLGLRLIYFSYDVKMKEKGDIPEGYSVSREKKERFSLILESASTNQTSMYLCASSQTWPPQHFGDGTRLSILE | 0.52
3 | B8.2.4 TCR mutant β97V-Y (TCR, V domains shown) V domain 1: AQKITQTQPGMFVQEKEAVTLDCTYDTSDPSYGLFWYKQPSSGEMIFLIYQGSYDQQNATEGRYSLNFQKARKSANLVISASQLGDSAMYFCAMRERTGTASKLTFGTGTRLQVTL V domain 2: DVKVTQSSRYLVKRTGEKVFLECVQDMDHENMFWYRQDPGLGLRLIYFSYDVKMKEKGDIPEGYSVSREKKERFSLILESASTNQTSMYLCASSQTYPPQHFGDGTRLSILE | 0.54
4 | B8.2.4 TCR mutant β98P-A (TCR, V domains shown) V domain 1: AQKITQTQPGMFVQEKEAVTLDCTYDTSDPSYGLFWYKQPSSGEMIFLIYQGSYDQQNATEGRYSLNFQKARKSANLVISASQLGDSAMYFCAMRERTGTASKLTFGTGTRLQVTL V domain 2: DVKVTQSSRYLVKRTGEKVFLECVQDMDHENMFWYRQDPGLGLRLIYFSYDVKMKEKGDIPEGYSVSREKKERFSLILESASTNQTSMYLCASSQTVAPQHFGDGTRLSILE | 0.5
5 | B8.2.4 TCR mutant β98P-C (TCR, V domains shown) V domain 1: AQKITQTQPGMFVQEKEAVTLDCTYDTSDPSYGLFWYKQPSSGEMIFLIYQGSYDQQNATEGRYSLNFQKARKSANLVISASQLGDSAMYFCAMRERTGTASKLTFGTGTRLQVTL V domain 2: DVKVTQSSRYLVKRTGEKVFLECVQDMDHENMFWYRQDPGLGLRLIYFSYDVKMKEKGDIPEGYSVSREKKERFSLILESASTNQTSMYLCASSQTVCPQHFGDGTRLSILE | 1.11
6 | B8.2.4 TCR mutant β98P-D (TCR, V domains shown) V domain 1: AQKITQTQPGMFVQEKEAVTLDCTYDTSDPSYGLFWYKQPSSGEMIFLIYQGSYDQQNATEGRYSLNFQKARKSANLVISASQLGDSAMYFCAMRERTGTASKLTFGTGTRLQVTL V domain 2: DVKVTQSSRYLVKRTGEKVFLECVQDMDHENMFWYRQDPGLGLRLIYFSYDVKMKEKGDIPEGYSVSREKKERFSLILESASTNQTSMYLCASSQTVDPQHFGDGTRLSILE | 0.8
7 | B8.2.4 TCR mutant β98P-E (TCR, V domains shown) V domain 1: AQKITQTQPGMFVQEKEAVTLDCTYDTSDPSYGLFWYKQPSSGEMIFLIYQGSYDQQNATEGRYSLNFQKARKSANLVISASQLGDSAMYFCAMRERTGTASKLTFGTGTRLQVTL V domain 2: DVKVTQSSRYLVKRTGEKVFLECVQDMDHENMFWYRQDPGLGLRLIYFSYDVKMKEKGDIPEGYSVSREKKERFSLILESASTNQTSMYLCASSQTVEPQHFGDGTRLSILE | 0.99
8 | B8.2.4 TCR mutant β98P-F (TCR, V domains shown) V domain 1: AQKITQTQPGMFVQEKEAVTLDCTYDTSDPSYGLFWYKQPSSGEMIFLIYQGSYDQQNATEGRYSLNFQKARKSANLVISASQLGDSAMYFCAMRERTGTASKLTFGTGTRLQVTL V domain 2: DVKVTQSSRYLVKRTGEKVFLECVQDMDHENMFWYRQDPGLGLRLIYFSYDVKMKEKGDIPEGYSVSREKKERFSLILESASTNQTSMYLCASSQTVFPQHFGDGTRLSILE | 0.96
9 | B8.2.4 TCR mutant β98P-G (TCR, V domains shown) V domain 1: AQKITQTQPGMFVQEKEAVTLDCTYDTSDPSYGLFWYKQPSSGEMIFLIYQGSYDQQNATEGRYSLNFQKARKSANLVISASQLGDSAMYFCAMRERTGTASKLTFGTGTRLQVTL V domain 2: DVKVTQSSRYLVKRTGEKVFLECVQDMDHENMFWYRQDPGLGLRLIYFSYDVKMKEKGDIPEGYSVSREKKERFSLILESASTNQTSMYLCASSQTVGPQHFGDGTRLSILE | 0.73
10 | B8.2.4 TCR mutant β98P-H (TCR, V domains shown) V domain 1: AQKITQTQPGMFVQEKEAVTLDCTYDTSDPSYGLFWYKQPSSGEMIFLIYQGSYDQQNATEGRYSLNFQKARKSANLVISASQLGDSAMYFCAMRERTGTASKLTFGTGTRLQVTL V domain 2: DVKVTQSSRYLVKRTGEKVFLECVQDMDHENMFWYRQDPGLGLRLIYFSYDVKMKEKGDIPEGYSVSREKKERFSLILESASTNQTSMYLCASSQTVHPQHFGDGTRLSILE | 0.6
11 | B8.2.4 TCR mutant β98P-I (TCR, V domains shown) V domain 1: AQKITQTQPGMFVQEKEAVTLDCTYDTSDPSYGLFWYKQPSSGEMIFLIYQGSYDQQNATEGRYSLNFQKARKSANLVISASQLGDSAMYFCAMRERTGTASKLTFGTGTRLQVTL V domain 2: DVKVTQSSRYLVKRTGEKVFLECVQDMDHENMFWYRQDPGLGLRLIYFSYDVKMKEKGDIPEGYSVSREKKERFSLILESASTNQTSMYLCASSQTVIPQHFGDGTRLSILE | 0.33
12 | B8.2.4 TCR mutant β98P-K (TCR, V domains shown) V domain 1: AQKITQTQPGMFVQEKEAVTLDCTYDTSDPSYGLFWYKQPSSGEMIFLIYQGSYDQQNATEGRYSLNFQKARKSANLVISASQLGDSAMYFCAMRERTGTASKLTFGTGTRLQVTL V domain 2: DVKVTQSSRYLVKRTGEKVFLECVQDMDHENMFWYRQDPGLGLRLIYFSYDVKMKEKGDIPEGYSVSREKKERFSLILESASTNQTSMYLCASSQTVKPQHFGDGTRLSILE | 0.47
13 | B8.2.4 TCR mutant β98P-L (TCR, V domains shown) V domain 1: AQKITQTQPGMFVQEKEAVTLDCTYDTSDPSYGLFWYKQPSSGEMIFLIYQGSYDQQNATEGRYSLNFQKARKSANLVISASQLGDSAMYFCAMRERTGTASKLTFGTGTRLQVTL V domain 2: DVKVTQSSRYLVKRTGEKVFLECVQDMDHENMFWYRQDPGLGLRLIYFSYDVKMKEKGDIPEGYSVSREKKERFSLILESASTNQTSMYLCASSQTVLPQHFGDGTRLSILE | 0.67
14 | B8.2.4 TCR mutant β98P-M (TCR, V domains shown) V domain 1: AQKITQTQPGMFVQEKEAVTLDCTYDTSDPSYGLFWYKQPSSGEMIFLIYQGSYDQQNATEGRYSLNFQKARKSANLVISASQLGDSAMYFCAMRERTGTASKLTFGTGTRLQVTL V domain 2: DVKVTQSSRYLVKRTGEKVFLECVQDMDHENMFWYRQDPGLGLRLIYFSYDVKMKEKGDIPEGYSVSREKKERFSLILESASTNQTSMYLCASSQTVMPQHFGDGTRLSILE | 0.83
15 | B8.2.4 TCR mutant β98P-N (TCR, V domains shown) V domain 1: AQKITQTQPGMFVQEKEAVTLDCTYDTSDPSYGLFWYKQPSSGEMIFLIYQGSYDQQNATEGRYSLNFQKARKSANLVISASQLGDSAMYFCAMRERTGTASKLTFGTGTRLQVTL V domain 2: DVKVTQSSRYLVKRTGEKVFLECVQDMDHENMFWYRQDPGLGLRLIYFSYDVKMKEKGDIPEGYSVSREKKERFSLILESASTNQTSMYLCASSQTVNPQHFGDGTRLSILE | 0.41
16 | B8.2.4 TCR mutant β98P-R (TCR, V domains shown) V domain 1: AQKITQTQPGMFVQEKEAVTLDCTYDTSDPSYGLFWYKQPSSGEMIFLIYQGSYDQQNATEGRYSLNFQKARKSANLVISASQLGDSAMYFCAMRERTGTASKLTFGTGTRLQVTL V domain 2: DVKVTQSSRYLVKRTGEKVFLECVQDMDHENMFWYRQDPGLGLRLIYFSYDVKMKEKGDIPEGYSVSREKKERFSLILESASTNQTSMYLCASSQTVRPQHFGDGTRLSILE | 0.73
